Measured values published in the supplement of paper PMC10567573.

B1: ANKRD9 (parent)
chain: VGAAGSARQELLGDRPRWQRLLGE
B2: KLHL14 (parent)
chain: NETGYLSSVECYNLETNEWRYVSS

Variants of: B1
Experiment: protein stability index of a GFP-peptide fusion (GPS, HEK-293T) (PSI 1-6); higher = more stable
Settings: c terminus: a fixed tail appended
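Also: lentivirally expressed fusions sorted by FACS into six bins by GFP to DsRed ratio, PSI derived from sequencing read proportions per bin multiplied by bin number.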

Protein stability index of substitutions, site by site:
L12: K 3.95, D 4.17, P 3.55, G 3.79, S 4.15, V 2.49
R15: C 3.11, T 3.68
A7: F 2.49
D14: F 2.12, T 2.94, N 2.6, Y 2.86
S6: T 3.01, Y 2.73, G 2.85
L21: G 2.93, K 4, N 3.71
R8: W 2.35, S 3.47
G23: T 2.98, D 3.84, V 2.78, C 2.88, M 3.23
W18: N 4.11
Q9: P 3.29, N 2.74
E10: P 1.62, R 2.71
A4: P 3.39
L22: D 4.11, F 2.93, I 3.18, H 3.53, N 3.13
G2: F 2.57, N 3.82
R17: G 3.5, I 2.83
Q19: I 2.98, P 3.79
R20: E 2.18, S 2.87
P16: N 3.88, E 4.72, C 3.24
A3: K 2.86, D 3.81
E24: R 3.26
V1: H 3.33, P 3.62, A 3.58, K 3.69
G13: Q 2.76, A 3.9

Variants of: B2
Experiment: as above
Settings: c terminus: a fixed tail appended

Protein stability index, by site and new letter:
S8: H 2.17, D 4.02, Y 1.67, Q 3.29, I 2.29, F 2.1, P 4.21, G 3.76, R 2.35, V 2.77, L 2.77, A 3.34, N 4.16, E 4.43, M 2.73, K 2.85, T 3.27, C 2.55
E15: K 3.66, L 2.61, H 2.42, I 1.84, F 1.8, D 3.41, Q 2.58, P 2.54, M 2.63, A 1.94, G 3.18, N 3.03, C 2.34
N1: P 3.49, K 3.55, R 2.55, T 2.83, S 3.69, Y 2.79, E 3.95, M 2.18, G 2.71, W 1.71, Q 3.31, H 3.44, V 3.3, D 3.23, C 2.41, I 2.43, L 3.04, F 2.63, A 3.05
L6: D 3.78, M 3.45, E 4.29, G 3.62, A 3.63, K 3.89, C 3.21, I 3.24, F 2.87, H 4.23, T 3.97, Y 2.86, N 3.08, Q 3.69, P 4.19, V 3.39, W 4.46, R 3.82, S 3.63
Y5: A 4.24, Q 4.24, P 4, L 3.46, D 4.57, I 4, H 4.18, C 3.9, S 4.16, R 3.2, E 4.24, M 3.64, G 4.01, F 3.71, T 4.72, N 4.2, K 3.41, V 3.8, W 2.52
S7: K 2.96, R 3.64, V 2.45, G 3.47, E 4.08, N 3.89, T 3.45, D 3.89, W 2.11, M 2.48, H 2.8, A 3.42, P 3.88, Y 2.26, L 2.24, Q 3.86, I 2.46, C 2.52, F 1.64
G4: Q 3.77, S 3.22, H 3.17, R 2.64, M 2.77, K 3.56, F 2.39, W 1.68, V 2.58, E 3.56, A 3.75, T 2.8, D 4, Y 2.46, L 2.67, N 3.82, C 1.98, P 3.92, I 2.34
N13: W 1.71, F 1.64, S 2.69, P 3.48, D 3.83, R 2.81, L 1.8, C 2.06, T 3.24, Y 2.63, M 2.21, A 2.99, I 1.52, G 2.67, H 2.73, V 1.47, K 2.56, Q 2.8, E 2.79
V9: F 2.67, S 3.87, K 2.96, G 3.88, H 3.88, W 2.43, E 4, M 3.62, I 3.16, P 3.84, Q 3.85, D 4.39, N 4.11, T 3.4, C 3.35, R 3.41, L 3.12, Y 3.14, A 4.07
E10: C 2.46, P 2.83, L 1.45, V 1.71, K 3.05, S 1.94, D 3.18, Q 3.42, I 1.69, A 2.72, R 3.23, F 1.64, N 2.48, W 1.75, M 1.86, T 2.98, Y 1.58, G 2.72, H 2.22
C11: G 3.91, P 3.92, Q 4.11, K 3.58, S 3.77, L 2.97, M 3.23, H 4.09, V 2.76, W 4.03, E 3.8, F 2.83, R 3.73, D 4.58, N 4.18, I 2.55, Y 3.06, T 3.6
L14: Q 3.88, S 4.68, F 3.38, M 3.46, N 4.24, D 4.15, K 3.99, E 4.6, W 3.11, A 3.96, R 3.73, P 4.16, G 3.49, I 3.35, H 3.74, Y 2.95, V 3.41, T 3.62, C 3.2
Y12: E 4.24, V 4.09, A 3.94, G 3.76, C 3.36, S 4, P 4.05, I 2.95, M 3.5, T 3.89, F 3.69, H 3.81, D 4.55, W 3.1, R 3.72, Q 3.84, N 3.78, K 3.97, L 3.67
T3: C 2.8, K 2.67, Y 3.21, S 3.4, D 4.12, W 2.53, G 3.01, I 3.4, E 3.53, F 2.45, V 2.92, N 3.78, Q 3.4, L 3.08, H 3.12, R 2.96, A 3.3, M 2.78, P 3.85
E2: Q 2.35, P 2.72, A 2.68, V 2.51, T 2.67, M 2.55, Y 1.88, F 1.72, R 2.49, S 2.78, I 2.37, K 2.69, G 2.43, C 2.7, H 2.02, N 2.78, W 3.64, D 3.52, L 2.09
